Results reported in the supplement of paper PMC5998384.

Assays:
HeLa Kyoto [1] = test: thermal stability score vs G1/S (z-score of summed log2 fold changes over temperatures); higher = more thermally stable than in G1/S
HeLa Kyoto [2] = test: solubility change mitosis vs G1/S (difference of NP-40 vs SDS log2 ratios) (log2 ratio difference); higher = more soluble in mitosis
HeLa Kyoto [3] = test: melting temperature (median over replicates), in situ; higher = more thermally stable
HeLa Kyoto [4] = test: solubility in G1/S (NP-40 vs SDS abundance) (log2 ratio); higher = more soluble; settings: cell cycle stage: G1/S
[5] = cell cycle stage: early G1 (4.5 h after nocodazole release)
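Wherever melting temperature (median over replicates), in situ is given: HeLa Kyoto cells synchronized by double thymidine or nocodazole block, proteins quantified by TMT10plex mass spectrometry, three independent biological replicates.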
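Wherever solubility change mitosis vs G1/S (difference of NP-40 vs SDS log2 ratios) is given: synchronized HeLa Kyoto cells (double thymidine block for G1/S, nocodazole release for mitosis), protein amounts in NP-40 versus SDS lysates quantified by mass spectrometry, three biological replicates.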
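Wherever solubility in G1/S (NP-40 vs SDS abundance) is given: HeLa Kyoto cells arrested at G1/S by double thymidine block, proteins quantified by TMT10plex mass spectrometry in mild NP-40 versus SDS extracts, three biological replicates.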
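Wherever thermal stability score vs G1/S (z-score of summed log2 fold changes over temperatures) is given: synchronized HeLa Kyoto cells, proteins quantified by TMT10plex mass spectrometry, three biological replicates, mitosis taken 0.5 h after nocodazole release, G1/S directly after double thymidine block.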

TMEM55B, sequence (chain, as listed by the source): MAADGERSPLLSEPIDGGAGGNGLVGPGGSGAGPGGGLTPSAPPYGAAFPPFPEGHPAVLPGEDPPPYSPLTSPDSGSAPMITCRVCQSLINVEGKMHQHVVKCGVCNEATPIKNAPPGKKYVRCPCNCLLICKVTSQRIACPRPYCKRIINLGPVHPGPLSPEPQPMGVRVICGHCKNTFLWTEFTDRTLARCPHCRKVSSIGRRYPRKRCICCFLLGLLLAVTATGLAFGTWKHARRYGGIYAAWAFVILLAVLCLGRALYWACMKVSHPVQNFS

Substance	thermal stability score (HeLa Kyoto [1]; [5])	thermal stability score (HeLa Kyoto [1]; cell cycle stage: mitosis)	solubility change mitosis (log2) (HeLa Kyoto [2])	melting temperature (HeLa Kyoto [3]; cell cycle stage: G1/S)	melting temperature (HeLa Kyoto [3]; cell cycle stage: mitosis)	solubility in G1/S (log2) (HeLa Kyoto [4])
MGSPLRFDGRVVLVTGAGAGLGRAYALAFAERGALVVVNDLGGDFKGVGKGSLAADKVVEEIRRRGGKAVANYDSVEEGEKVVKTALDAFGRIDVVVNNAGILRDRSFARISDEDWDIIHRVHLRGSFQVTRAAWEHMKKQKYGRIIMTSSASGIYGNFGQANYSAAKLGLLGLANSLAIEGRKSNIHCNTIAPNAGSRMTQTVMPEDLVEALKPEYVAPLVLWLCHESCEENGGLFEVGAGWIGKLRWERTLGAIVRQKNHPMTPEAVKANWKKICDFENASKPQSIQESTGSIIEVLSKIDSEGGVSANHTSRATSTATSGFAGAIGQKLPPFSYAYTELEAIMYALGVGASIKDPKDLKFIYEGSSDFSCLPTFGVIIGQKSMMGGGLAEIPGLSINFAKVLHGEQYLELYKPLPRAGKLKCEAVVADVLDKGSGVVIIMDVYSYSEKELICHNQFSLFLVGSGGFGGKRTSDKVKVAVAIPNRPPDAVLTDTTSLNQAALYRLSGDWNPLHIDPNFASLAGFDKPILHGLCTFGFSARRVLQQFADNDVSRFKAIKARFAKPVYPGQTLQTEMWKEGNRIHFQTKVQETGDIVISNAYVDLAPTSGTSAKTPSEGGKLQSTFVFEEIGRRLKDIGPEVVKKVNAVFEWHITKGGNIGAKWTIDLKSGSGKVYQGPAKGAADTTIILSDEDFMEVVLGKLDPQKAFFSGRLKARGNIMLSQKLQMILKDYAKL [HSD17B4]	0.589	0.868	-0.0933	54.2 °C	54.1 °C	0.00461
MADSASESDTDGAGGNSSSSAAMQSSCSSTSGGGGGGGGGGGGGKSGGIVISPFRLEELTNRLASLQQENKVLKIELETYKLKCKALQEENRDLRKASVTIQARAEQEEEFISNTLFKKIQALQKEKETLAVNYEKEEEFLTNELSRKLMQLQHEKAELEQHLEQEQEFQVNKLMKKIKKLENDTISKQLTLEQLRREKIDLENTLEQEQEALVNRLWKRMDKLEAEKRILQEKLDQPVSAPPSPRDISMEIDSPENMMRHIRFLKNEVERLKKQLRAAQLQHSEKMAQYLEEERHMREENLRLQRKLQREMERREALCRQLSESESSLEMDDERYFNEMSAQGLRPRTVSSPIPYTPSPSSSRPISPGLSYASHTVGFTPPTSLTRAGMSYYNSPGLHVQHMGTSHGITRPSPRRSNSPDKFKRPTPPPSPNTQTPVQPPPPPPPPPMQPTVPSAATSQPTPSQHSAHPSSQP [CCDC6]	-2.05	0.137	-0.174	53.5 °C	53.6 °C	0.826
MAMGDDKSFDDEESVDGNRPSSAASAFKVPAPKTSGNPANSARKPGSAGGPKVGGASKEGGAGAVDEDDFIKAFTDVPSIQIYSSRELEETLNKIREILSDDKHDWDQRANALKKIRSLLVAGAAQYDCFFQHLRLLDGALKLSAKDLRSQVVREACITVAHLSTVLGNKFDHGAEAIVPTLFNLVPNSAKVMATSGCAAIRFIIRHTHVPRLIPLITSNCTSKSVPVRRRSFEFLDLLLQEWQTHSLERHAAVLVETIKKGIHDADAEARVEARKTYMGLRNHFPGEAETLYNSLEPSYQKSLQTYLKSSGSVASLPQSDRSSSSSQESLNRPFSSKWSTANPSTVAGRVSAGSSKASSLPGSLQRSRSDIDVNAAAGAKAHHAAGQSVRSGRLGAGALNAGSYASLEDTSDKLDGTASEDGRVRAKLSAPLAGMGNAKADSRGRSRTKMVSQSQPGSRSGSPGRVLTTTALSTVSSGVQRVLVNSASAQKRSKIPRSQGCSREASPSRLSVARSSRIPRPSVSQGCSREASRESSRDTSPVRSFQPLASRHHSRSTGALYAPEVYGASGPGYGISQSSRLSSSVSAMRVLNTGSDVEEAVADALKKPARRRYESYGMHSDDDANSDASSACSERSYSSRNGSIPTYMRQTEDVAEVLNRCASSNWSERKEGLLGLQNLLKNQRTLSRVELKRLCEIFTRMFADPHGKRVFSMFLETLVDFIQVHKDDLQDWLFVLLTQLLKKMGADLLGSVQAKVQKALDVTRESFPNDLQFNILMRFTVDQTQTPSLKVKVAILKYIETLAKQMDPGDFINSSETRLAVSRVITWTTEPKSSDVRKAAQSVLISLFELNTPEFTMLLGALPKTFQDGATKLLHNHLRNTGNGTQSSMGSPLTRPTPRSPANWSSPLTSPTNTSQNTLSPSAFDYDTENMNSEDIYSSLRGVTEAIQNFSFRSQEDMNEPLKRDSKKDDGDSMCGGPGMSDPRAGGDATDSSQTALDNKASLLHSMPTHSSPRSRDYNPYNYSDSISPFNKSALKEAMFDDDADQFPDDLSLDHSDLVAELLKELSNHNERVEERKIALYELMKLTQEESFSVWDEHFKTILLLLLETLGDKEPTIRALALKVLREILRHQPARFKNYAELTVMKTLEAHKDPHKEVVRSAEEAASVLATSISPEQCIKVLCPIIQTADYPINLAAIKMQTKVIERVSKETLNLLLPEIMPGLIQGYDNSESSVRKACVFCLVAVHAVIGDELKPHLSQLTGSKMKLLNLYIKRAQTGSGGADPTTDVSGQS [CLASP2]	0.157	0.371	-0.0766	49.7 °C	49.7 °C	-0.0972
MDPECAQLLPALCAVLVDPRQPVADDTCLEKLLDWFKTVTEGESSVVLLQEHPCLVELLSHVLKVQDLSSGVLSFSLRLAGTFAAQENCFQYLQQGELLPGLFGEPGPLGRATWAVPTVRSGWIQGLRSLAQHPSALRFLADHGAVDTIFSLQGDSSLFVASAASQLLVHVLALSMRGGAEGQPCLPGGDWPACAQKIMDHVEESLCSAATPKVTQALNVLTTTFGRCQSPWTEALWVRLSPRVACLLERDPIPAAHSFVDLLLCVARSPVFSSSDGSLWETVARALSCLGPTHMGPLALGILKLEHCPQALRTQAFQVLLQPLACVLKATVQAPGPPGLLDGTADDATTVDTLLASKSSCAGLLCRTLAHLEELQPLPQRPSPWPQASLLGATVTVLRLCDGSAAPASSVGGHLCGTLAGCVRVQRAALDFLGTLSQGTGPQELVTQALAVLLECLESPGSSPTVLKKAFQATLRWLLSSPKTPGCSDLGPLIPQFLRELFPVLQKRLCHPCWEVRDSALEFLTQLSRHWGGQADFRCALLASEVPQLALQLLQDPESYVRASAVTAMGQLSSQGLHAPTSPEHAEARQSLFLELLHILSVDSEGFPRRAVMQVFTEWLRDGHADAAQDTEQFVATVLQAASRDLDWEVRAQGLELALVFLGQTLGPPRTHCPYAVALPEVAPAQPLTEALRALCHVGLFDFAFCALFDCDRPVAQKSCDLLLFLRDKIASYSSLREARGSPNTASAEATLPRWRAGEQAQPPGDQEPEAVLAMLRSLDLEGLRSTLAESSDHVEKSPQSLLQDMLATGGFLQGDEADCY [BRAT1]	1.55	4.01	-0.141	46.5 °C	48.4 °C	0.0286
MPHRKKKPFIEKKKAVSFHLVHRSQRDPLAADESAPQRVLLPTQKIDNEERRAEQRKYGVFFDDDYDYLQHLKEPSGPSELIPSSTFSAHNRREEKEETLVIPSTGIKLPSSVFASEFEEDVGLLNKAAPVSGPRLDFDPDIVAALDDDFDFDDPDNLLEDDFILQANKATGEEEGMDIQKSENEDDSEWEDVDDEKGDSNDDYDSAGLLSDEDCMSVPGKTHRAIADHLFWSEETKSRFTEYSMTSSVMRRNEQLTLHDERFEKFYEQYDDDEIGALDNAELEGSIQVDSNRLQEVLNDYYKEKAENCVKLNTLEPLEDQDLPMNELDESEEEEMITVVLEEAKEKWDCESICSTYSNLYNHPQLIKYQPKPKQIRISSKTGIPLNVLPKKGLTAKQTERIQMINGSDLPKVSTQPRSKNESKEDKRARKQAIKEERKERRVEKKANKLAFKLEKRRQEKELLNLKKNVEGLKL [LTV1]	-2.27	-0.672	-0.0961	50.1 °C	48.8 °C	-0.271
MARGERRRRAVPAEGVRTAERAARGGPGRRDGRGGGPRSTAGGVALAVVVLSLALGMSGRWVLAWYRARRAVTLHSAPPVLPADSSSPAVAPDLFWGTYRPHVYFGMKTRSPKPLLTGLMWAQQGTTPGTPKLRHTCEQGDGVGPYGWEFHDGLSFGRQHIQDGALRLTTEFVKRPGGQHGGDWSWRVTVEPQDSGTSALPLVSLFFYVVTDGKEVLLPEVGAKGQLKFISGHTSELGDFRFTLLPPTSPGDTAPKYGSYNVFWTSNPGLPLLTEMVKSRLNSWFQHRPPGAPPERYLGLPGSLKWEDRGPSGQGQGQFLIQQVTLKIPISIEFVFESGSAQAGGNQALPRLAGSLLTQALESHAEGFRERFEKTFQLKEKGLSSGEQVLGQAALSGLLGGIGYFYGQGLVLPDIGVEGSEQKVDPALFPPVPLFTAVPSRSFFPRGFLWDEGFHQLVVQRWDPSLTREALGHWLGLLNADGWIGREQILGDEARARVPPEFLVQRAVHANPPTLLLPVAHMLEVGDPDDLAFLRKALPRLHAWFSWLHQSQAGPLPLSYRWRGRDPALPTLLNPKTLPSGLDDYPRASHPSVTERHLDLRCWVALGARVLTRLAEHLGEAEVAAELGPLAASLEAAESLDELHWAPELGVFADFGNHTKAVQLKPRPPQGLVRVVGRPQPQLQYVDALGYVSLFPLLLRLLDPTSSRLGPLLDILADSRHLWSPFGLRSLAASSSFYGQRNSEHDPPYWRGAVWLNVNYLALGALHHYGHLEGPHQARAAKLHGELRANVVGNVWRQYQATGFLWEQYSDRDGRGMGCRPFHGWTSLVLLAMAEDY [MOGS]	3.25	3.97	-0.0215	52.9 °C	52.8 °C	-0.0875
MEDSEALGFEHMGLDPRLLQAVTDLGWSRPTLIQEKAIPLALEGKDLLARARTGSGKTAAYAIPMLQLLLHRKATGPVVEQAVRGLVLVPTKELARQAQSMIQQLATYCARDVRVANVSAAEDSVSQRAVLMEKPDVVVGTPSRILSHLQQDSLKLRDSLELLVVDEADLLFSFGFEEELKSLLCHLPRIYQAFLMSATFNEDVQALKELILHNPVTLKLQESQLPGPDQLQQFQVVCETEEDKFLLLYALLKLSLIRGKSLLFVNTLERSYRLRLFLEQFSIPTCVLNGELPLRSRCHIISQFNQGFYDCVIATDAEVLGAPVKGKRRGRGPKGDKASDPEAGVARGIDFHHVSAVLNFDLPPTPEAYIHRAGRTARANNPGIVLTFVLPTEQFHLGKIEELLSGENRGPILLPYQFRMEEIEGFRYRCRDAMRSVTKQAIREARLKEIKEELLHSEKLKTYFEDNPRDLQLLRHDLPLHPAVVKPHLGHVPDYLVPPALRGLVRPHKKRKKLSSSCRKAKRAKSQNPLRSFKHKGKKFRPTAKPS [DDX56]	0.609	0.497	0.785	51.8 °C	52 °C	-1.13
LTN1	0.696	1.04	-0.0806	50.1 °C	48.8 °C	-0.347
MGEPQGSMRILVTGGSGLVGKAIQKVVADGAGLPGEDWVFVSSKDADLTDTAQTRALFEKVQPTHVIHLAAMVGGLFRNIKYNLDFWRKNVHMNDNVLHSAFEVGARKVVSCLSTCIFPDKTTYPIDETMIHNGPPHNSNFGYSYAKRMIDVQNRAYFQQYGCTFTAVIPTNVFGPHDNFNIEDGHVLPGLIHKVHLAKSSGSALTVWGTGNPRRQFIYSLDLAQLFIWVLREYNEVEPIILSVGEEDEVSIKEAAEAVVEAMDFHGEVTFDTTKSDGQFKKTASNSKLRTYLPDFRFTPFKQAVKETCAWFTDNYEQARK [TSTA3]	-3.68	-2.17	-0.116	59.3 °C	58.2 °C	0.141
MTDDKDVLRDVWFGRIPTCFTLYQDEITEREAEPYYLLLPRVSYLTLVTDKVKKHFQKVMRQEDISEIWFEYEGTPLKWHYPIGLLFDLLASSSALPWNITVHFKSFPEKDLLHCPSKDAIEAHFMSCMKEADALKHKSQVINEMQKKDHKQLWMGLQNDRFDQFWAINRKLMEYPAEENGFRYIPFRIYQTTTERPFIQKLFRPVAADGQLHTLGDLLKEVCPSAIDPEDGEKKNQVMIHGIEPMLETPLQWLSEHLSYPDNFLHISIIPQPTD [ATG5]	-0.587	0.0242	0.0407	54.2 °C	53.6 °C	0.406
TMEM55B	-1.51	-1.58	-0.162	53.4 °C	53.5 °C	0.135
